Tested on: K4 kissing-loop RNA reporter
Test: apparent KD of K4 kissing-loop reporter; higher = weaker reporter binding
Details: Eterna round: R107
Method: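 RNA-MaP round R107: designed RNA switches with theophylline, tryptophan, arginine or FMN aptamers are transcribed on-chip within common flanks. They are titrated with a labelled K4 kissing-loop RNA reporter in RNA-MaP buffer (100 mM Tris pH 7.5, 80 mM KCl, 4 mM MgCl2), without ligand or with the indicated ligand. Median apparent KD per design.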

[1] = input ligand: theophylline 20 uM
[2] = input ligand: tryptophan 2.4 mM
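Also: bound reporter read as fluorescence of individual clusters on recovered sequencing chips by microscopy, with normalized cluster intensities fitted with a binding model.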

Sequence | apparent KD of K4 kissing-loop reporter (input ligand: FMN 200 uM) | apparent KD of K4 kissing-loop reporter (input ligand: arginine 13.2 mM) | apparent KD of K4 kissing-loop reporter (input ligand: none) | apparent KD of K4 kissing-loop reporter [1] | apparent KD of K4 kissing-loop reporter [2]
AAUGUACAGGGAAGGAGCGCCGUCCAGUGAUGUUGGAGUUAAAUACCAGUGAUGUUGGUUAGGCAGGUAGGUCGCCCUAUAGUAU [#07 K4 Arginine B Exclusion] | 0.126 µM | 0.0929 µM | 0.117 µM | 0.134 µM | 0.108 µM
AAUGUAUGGCACAUGAGUGAUGUUCAUGUCCGAGGACCGGUACGGCCGCCACUCGGUCCUGGGUUCUUAUUACUAUACAUUAAUG [KL-XTryp-A2 #analogue] | 0.161 µM | 0.133 µM | 0.149 µM | 0.169 µM | 0.289 µM
AAUGUAUUCCACAUGAGUGAUGUUCAUGUGCGAGGACCGGUACGGCCGCCACUCGCAGUUGUGAUCAGUUCUGAAUACAUUAAUG [KL-XTryp-A3] | 0.229 µM | 0.225 µM | 0.219 µM | 0.235 µM | 0.331 µM
AAUGUGCAGGGAAGGAGCGUAGUCCAGUGCUGUUGGAGUUAGAUACCAGUGAUGUUGGUUAUACAGGUAGGUCGCCCUAAAGCGC [whbob_Ex_Arginine_B_2th161] | 0.139 µM | 0.154 µM | 0.14 µM | 0.161 µM | 0.13 µM
AAUUAAUGUAUAGAUUAUAUACAUUAAUCAGAGGAUAUGCAUUGUUGCAGAAGGCUGAAUGCAGUGAUGUUGCAAUGGAAAUUUA [JR_SSFMNA_Sub004] | 0.0538 µM | 0.201 µM | 0.181 µM | 0.376 µM | 0.12 µM
AAUUGGGACGAAGGAUAUUGUCGGCCAUGUACGAGGUCCGGAUGUCAUGACUGUUAGUGAUGUUAACAAGAAGGUCGAGGGAGAC [theeternabot_exclusion_KL_FMN_B_25] | 0.087 µM | 0.107 µM | 0.103 µM | 0.119 µM | 0.0863 µM
AAUUUACAAUAAUCAUUUAAAGGAUCAGAAGGAGCGUGAAAUAACACAGGUAGGUCGCUGAGCGAGUGAUGUUCGCUAUAUACAA [JR_ExcArginiA_Sub001] | 0.0523 µM | 0.0687 µM | 0.0688 µM | 0.0859 µM | 0.0501 µM
ACACUUUACGUAGGAUAUGCGACGAGUGAUGUUCGUCAGGCGGCUUUAGCUUAAUCAGGCCGCCUAGCAGAAGGACGGGCAGUGU [Zaretiesre] | 0.142 µM | 0.149 µM | 0.199 µM | 0.195 µM | 0.181 µM
ACAGCGAGCAUUAACGCGCUCGCAGGUUGCAAGGAUAUAUUUCGUCAUAGAAGGUGCUAGACCAUAAGUGAUGUUUGUGGAUAUA [theeternabot_sameState_KL_FMN_A_16] | 0.576 µM | 0.396 µM | 0.503 µM | 0.448 µM | 0.525 µM
ACAGGAUCGAAAGAUCCUGAGCAGUCAAACCGAGGACCGGUACGGCCGCCACUCGGAGUGAUGUUCCGAAGACUGCAAAAUAAAA [#SwitchBubble 1] | 0.539 µM | 0.707 µM | 1.12 µM | 0.406 µM | 0.334 µM
ACCCAAGCCCAUCGCGCAGUGAUGUUGUCGCGAGGACCGGUACGGCCGCCACUCGAUAGCAGUGGCAACGUCAUCAUAAUCGAUU [theeternabot_exclusion_KL_Trp_A_50] | 0.34 µM | 0.31 µM | 0.352 µM | 0.299 µM | 0.563 µM
ACCUACGAUCACAAUAGUGAUUGUAGGAACUAGGAUAUGCUGAAAAGCAGAAGGAGUGAUGUUCCAACUCAUGAAUAACAUGAGA [FmnAX 2 #OpenEnded #K4Late] | 0.536 µM | 0.252 µM | 0.249 µM | 0.274 µM | 0.198 µM
ACGUAGUUCUAGGAUACCAGCCAAGGCGCAGGACAAAAGUCCUGCGUCGCCAGUGAUGUUGGCCCUUGGCAGCCUAGAACUACGA [Omei KL Theo B Exc B v12] | 0.334 µM | 0.302 µM | 0.304 µM | 0.364 µM | 0.308 µM
ACGUCUUGUAAACUCGUGGUUUCGAUCGAUACCAGUAGCGAGAGUUACCCUUGGCAGCGACAUGAGUGAUGUUCAUGUACGAAGA [KL-XTheoA3] | 0.0986 µM | 0.0879 µM | 0.0929 µM | 0.0891 µM | 0.0907 µM
ACGUGCACCAGUGAUGUUGGAAAAUAUGAAGGAGCGGGUGAAAACCCAGGUAGGUCGCAUAAUAGCACGAGCCACGAAAGUGGCA | 0.125 µM | 0.138 µM | 0.157 µM | 0.128 µM | 0.122 µM
ACGUGCACUAGUGAUGUUAGAAAAUACGAAGGAGCGGGCGAAAGCCCAGGUAGGUCGCGUAAUAGCACGAGCCACGAAAGUGGCA | 0.254 µM | 0.271 µM | 0.325 µM | 0.447 µM | 0.248 µM

Sequence | apparent KD of K4 kissing-loop reporter (input ligand: FMN 200 uM) | apparent KD of K4 kissing-loop reporter (input ligand: arginine 13.2 mM) | apparent KD of K4 kissing-loop reporter (input ligand: none) | apparent KD of K4 kissing-loop reporter [1] | apparent KD of K4 kissing-loop reporter [2]
ACUGAAAGAUCUGAUACCAGACUUUUUGUAUUUAUUAAAACUAGUGAUGUUAGUUUAUCUGUCCCUUGGCAGCAGUUUCUACAGA [JR_Nu_ExcTheophyB_Sub023] | 0.128 µM | 0.132 µM | 0.144 µM | 0.134 µM | 0.117 µM
ACUUUGGGCCCAGUGAUGUUGGGUCCAGAUACCAGACGUAAAUAAGUCCCUUGGCAGCUGCGUACUAACUAGCACAGGAGGGUCC [Edleaes] | 0.135 µM | 0.143 µM | 0.15 µM | 0.154 µM | 0.141 µM
AGAACUGUCUGAGAUACCAGCUAAGGAGUGAUGUUCCUAAGUCCACGAAAGUGGACUCAUAGCCCUUGGCAGCUCAGACAGUUCA [#24 K4 Theophylline B Same State] | 1.15 µM | 0.675 µM | 0.815 µM | 0.565 µM | 0.963 µM
AGAACUGUCUGGGAUACCAGCCGAGGAGUGAUGUUCCGGCUCGACGAAACGUCGAGCCACGGCCCUUGGCAGCUCAGACAGUUCA [#21 K4 Theophylline B Same State] | 0.674 µM | 0.332 µM | 1.05 µM | 1.25 µM | 0.759 µM
AGACUACCACACUGUCAAUAGACAGUGAACUCGGAUAUGCUGAUAAGCAGAAGGAGUGAUGUUCCCAGGUAGUCAAUAAAAUAAU [FmnAX 13 C32+C66] | 0.135 µM | 0.111 µM | 0.144 µM | 0.233 µM | 0.142 µM
AGAGCGGUCGAAGGAUAUGAGACAACCAACGGUGAGUGAUGUUUGCCGAGUAAACCUCUAGUUGCGUCAGAAGGUCGGCUCAGUC [theeternabot_sameState_KL_FMN_B_25] | 0.595 µM | 0.46 µM | 0.633 µM | 0.625 µM | 0.52 µM
AGAGGUCCCAGUGAUGUUGGUGCGUUUGGUCGAGGACCGGUACGGCCGCCACUCGUUCAUAGUAAGCCCUCUUUAGUGUUUCUAA [theeternabot_sameState_KL_Trp_A_9] | 0.544 µM | 0.336 µM | 0.428 µM | 0.551 µM | 0.186 µM
AGAGUACGAAAGUACUCCUCUACACACUGACGAGGACCGGUACGGCCGCCACUCGAGUUGAGUGAUGUUCGACAGUGUGUAGAGA [Omei KL Tryp A SS C v1] | 0.12 µM | 0.0223 µM | 0.0256 µM | 0.163 µM | 0.783 µM
AGAGUGAUGUUUUUUUGAAGUGAGUAAAGUCGAGGACCGGUACGGCCGCCACUCGAGUGAUGUUAGUGAUGUUGAUGUAGUGAUG [xxzmullin] | 0.11 µM | 0.069 µM | 0.0909 µM | 0.105 µM | 0.0754 µM
AGAGUUAUGCGAGGAUAUGCGGUUAGUACUCAAAGAGUACUAACGCAGAGUGAUGUUCUGUGAAACACAGAAGGUGCAUAACUCA [Omei KL FMN B SS B v2] | 0.95 µM | 0.116 µM | 0.249 µM | 0.205 µM | 0.148 µM
AGAGUUAUGCGAGGAUAUGCGGUUAGUACUCAAAGAGUACUAACGCAGAGUGAUGUUCUGUGAAACGCAGAAGGUGCAUAACUCA [Omei KL FMN B SS B v3] | 0.153 µM | 0.216 µM | 0.28 µM | 0.238 µM | 0.229 µM
AGAUCUGUAACAGAUACCAGAGGACGAUGAUCGGAUAGUGAUGUUAUCUAUCAGUCGUCGCUCCCUUGGCAGCUGUUACAGAUCA [Omei KL Theo B SS B v2] | 0.839 µM | 0.45 µM | 0.776 µM | 0.552 µM | 0.662 µM
AGAUGACACGGAGGAUAUCCUAAUAUGGGUGAUGUUAGCGAUGUUGAAGGUGUAGUGAUGUUAUGCGGAGAAGGCCGUGUUGUUU [BDazzled - #22 - Exc. FMN B] | 0.103 µM | 0.0856 µM | 0.155 µM | 0.102 µM | 0.0961 µM
AGAUUCGACACGGCCGCCACUUCCAGUGGCUGGUGUCAUGGUGCACGUGAGUGAUGUUUAUGUGGAAGGACCGGGUGUUGAGUCU [KL-XTryp-B2 #analogue] | 0.652 µM | 0.472 µM | 0.67 µM | 0.504 µM | 1.25 µM
AGAUUCGACACGGCCGCCACUUGUGGUGGAUUAUCCUAUGUAAGACAUGAGUGAUGUUCAUGUACAAGGACCGGGUGUUGAGUCU [KL-XTryp-B4 #analogue] | 0.215 µM | 0.177 µM | 0.199 µM | 0.193 µM | 0.425 µM
AGCAGUGAUGUUGCAUUUAUAAUGACCGAUACCAGUAUCGAUAGAUACCCUUGGCAGCGGAUUUCCGCAACGACUAGGAAACUAG [Ex Theophylline A K4 14] | 0.305 µM | 0.359 µM | 0.355 µM | 0.508 µM | 0.283 µM
